# Results taken from US20140242080A1 (Hoffmann-La Roche, published 2014).
# Residue numbers refer to the chain shown, from its start.
# T1: cynomolgus MCSP D3 (cynomolgus, UniProt Q6UVK1 1582-2224 (human entry), limits assumed)
# T1 construct: also called Cyno MCSP; cynomolgus homologue
# T1 chain: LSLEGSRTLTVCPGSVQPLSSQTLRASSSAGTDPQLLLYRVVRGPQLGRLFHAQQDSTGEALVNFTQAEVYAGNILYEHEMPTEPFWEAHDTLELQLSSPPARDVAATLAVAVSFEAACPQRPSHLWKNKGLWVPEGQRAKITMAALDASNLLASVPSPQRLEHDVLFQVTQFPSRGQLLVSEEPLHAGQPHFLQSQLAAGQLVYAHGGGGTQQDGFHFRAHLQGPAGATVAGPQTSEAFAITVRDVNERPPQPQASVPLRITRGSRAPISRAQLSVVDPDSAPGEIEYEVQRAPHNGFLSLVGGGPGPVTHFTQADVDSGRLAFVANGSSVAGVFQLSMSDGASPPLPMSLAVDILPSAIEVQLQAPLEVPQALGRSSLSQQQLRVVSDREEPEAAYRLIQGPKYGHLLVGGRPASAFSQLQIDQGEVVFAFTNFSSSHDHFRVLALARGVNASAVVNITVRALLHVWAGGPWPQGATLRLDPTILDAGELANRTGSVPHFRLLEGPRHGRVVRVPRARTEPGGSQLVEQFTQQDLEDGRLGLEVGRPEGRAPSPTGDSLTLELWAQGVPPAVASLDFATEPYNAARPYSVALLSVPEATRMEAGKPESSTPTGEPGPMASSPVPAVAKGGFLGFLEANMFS
# T2: hu-MCSP(D3 domain)-avi-his (human, UniProt Q6UVK1 1582-2224)
# T2 construct: Recombinant D3 domain with avi and his tags; also called human MCSP(D3 domain)-avi-his; Human MCSP D3
# T2 sequence: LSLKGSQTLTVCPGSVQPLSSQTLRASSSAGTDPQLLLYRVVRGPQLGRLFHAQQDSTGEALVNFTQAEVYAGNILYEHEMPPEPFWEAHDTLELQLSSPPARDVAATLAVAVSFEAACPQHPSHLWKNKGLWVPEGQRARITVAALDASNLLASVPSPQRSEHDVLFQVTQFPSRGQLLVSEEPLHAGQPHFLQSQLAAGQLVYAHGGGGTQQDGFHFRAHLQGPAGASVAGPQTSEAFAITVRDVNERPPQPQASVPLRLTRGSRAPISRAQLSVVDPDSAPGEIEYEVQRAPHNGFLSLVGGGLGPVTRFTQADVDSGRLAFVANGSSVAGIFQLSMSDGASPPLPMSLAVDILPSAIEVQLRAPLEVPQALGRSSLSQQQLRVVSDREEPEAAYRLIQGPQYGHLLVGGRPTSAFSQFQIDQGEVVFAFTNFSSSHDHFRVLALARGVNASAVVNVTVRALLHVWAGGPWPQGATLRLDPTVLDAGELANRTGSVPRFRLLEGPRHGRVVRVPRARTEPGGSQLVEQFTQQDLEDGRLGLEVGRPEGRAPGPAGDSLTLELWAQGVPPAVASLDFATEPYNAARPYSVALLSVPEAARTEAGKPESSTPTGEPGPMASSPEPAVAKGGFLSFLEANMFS
# B1: 1 + 1 IgG Crossfab; VL/VH exchange (LC007/V9) (anti-MCSP/anti-huCD3) (bispecific antibody)
# chain 1: DIVLTQSPSSLSASLGDRVTISCSASQGIRNYLNWYQQRPDGTVKLLIYYTSSLHSGVPSRFSGSGSGTDYSLTISNLEPEDIATYYCQQYSKLPWTFGGGTKLEIKRTVAAPSVFIFPPSDEQLKSGTASVVCLLNNFYPREAKVQWKVDNALQSGNSQESVTEQDSKDSTYSLSSTLTLSKADYEKHKVYACEVTHQGLSSPVTKSFNRGEC
# chain 2: DIQMTQSPSSLSASVGDRVTITCRASQDIRNYLNWYQQKPGKAPKLLIYYTSRLESGVPSRFSGSGSGTDYTLTISSLQPEDFATYYCQQGNTLPWTFGQGTKVEIKSSASTKGPSVFPLAPSSKSTSGGTAALGCLVKDYFPEPVTVSWNSGALTSGVHTFPAVLQSSGLYSLSSVVTVPSSSLGTQTYICNVNHKPSNTKVDKKVEPKSCGGGGSGGGGSEVQLQESGPGLVKPSQSLSLTCSVTGYSITSGYYWNWIRQFPGNKLEWMGYITYDGSNNYNPSLKNRISITRDTSKNQFFLKLNSVTTEDTATYYCADFDYWGQGTTLTVSSASTKGPSVFPLAPSSKSTSGGTAALGCLVKDYFPEPVTVSWNSGALTSGVHTFPAVLQSSGLYSLSSVVTVPSSSLGTQTYICNVNHKPSNTKVDKKVEPKSCDKTHTCPPCPAPEAAGGPSVFLFPPKPKDTLMISRTPEVTCVVVDVSHEDPEVKFNWYVDGVEVHNAKTKPREEQYNSTYRVVSVLTVLHQDWLNGKEYKCKVSNKALGAPIEKTISKAKGQPREPQVCTLPPSRDELTKNQVSLSCAVKGFYPSDIAVEWESNGQPENNYKTTPPVLDSDGSFFLVSKLTVDKSRWQQGNVFSCSVMHEALHNHYTQKSLSLSPGK
# chain 3: EVQLVESGGGLVQPGGSLRLSCAASGYSFTGYTMNWVRQAPGKGLEWVALINPYKGVSTYNQKFKDRFTISVDKSKNTAYLQMNSLRAEDTAVYYCARSGYYGDSDWYFDVWGQGTLVTVSSASVAAPSVFIFPPSDEQLKSGTASVVCLLNNFYPREAKVQWKVDNALQSGNSQESVTEQDSKDSTYSLSSTLTLSKADYEKHKVYACEVTHQGLSSPVTKSFNRGEC
# chain 4: not shown
# B2: 1 + 1 CrossMab; CL/CH1 exchange (LC007/V9) (anti-MCSP/anti-huCD3) (bispecific antibody)
# chain 1: B1 chain 1
# chain 2: EVQLQESGPGLVKPSQSLSLTCSVTGYSITSGYYWNWIRQFPGNKLEWMGYITYDGSNNYNPSLKNRISITRDTSKNQFFLKLNSVTTEDTATYYCADFDYWGQGTTLTVSSASTKGPSVFPLAPSSKSTSGGTAALGCLVKDYFPEPVTVSWNSGALTSGVHTFPAVLQSSGLYSLSSVVTVPSSSLGTQTYICNVNHKPSNTKVDKKVEPKSCDKTHTCPPCPAPEAAGGPSVFLFPPKPKDTLMISRTPEVTCVVVDVSHEDPEVKFNWYVDGVEVHNAKTKPREEQYNSTYRVVSVLTVLHQDWLNGKEYKCKVSNKALGAPIEKTISKAKGQPREPQVCTLPPSRDELTKNQVSLSCAVKGFYPSDIAVEWESNGQPENNYKTTPPVLDSDGSFFLVSKLTVDKSRWQQGNVFSCSVMHEALHNHYTQKSLSLSPGK
# chain 3: DIQMTQSPSSLSASVGDRVTITCRASQDIRNYLNWYQQKPGKAPKLLIYYTSRLESGVPSRFSGSGSGTDYTLTISSLQPEDFATYYCQQGNTLPWTFGQGTKVEIKSSASTKGPSVFPLAPSSKSTSGGTAALGCLVKDYFPEPVTVSWNSGALTSGVHTFPAVLQSSGLYSLSSVVTVPSSSLGTQTYICNVNHKPSNTKVDKKVEPKSC
# chain 4: not shown
# B3: M4-3(A7)/ML2(E10) IgG (antibody, V domains shown)
# VH: QVQLQESGPGLVKPSQTLSLTCTVSGGSITDGYYWNWIRQHPGKGLEWIGYITFDGRNNYNPSLKSRVTISRDTSKNQFSLKLSSVTAADTAVYYCADFDYWGQGTLVTVSS
# VL: DIQMTQSPSSLSASVGDRVTITCRASYGIRGYLNWYQQKPGKAPKLLIYYTSSLHSGVPSRFSGSGSGTDFTLTISSLQPEDFATYHCQQYSKLPWTFGQGTKVEIK
# notes: Human IgG1
# B4: M4-3(C1)/ML2 IgG (antibody, V domains shown)
# VH: B3 VH with D31S, R57S
# VL: DIQMTQSPSSLSASVGDRVTITCRASQGIRNYLNWYQQKPGKAPKLLIYYTSSLHSGVPSRFSGSGSGTDFTLTISSLQPEDFATYYCQQYSKLPWTFGQGTKVEIKR
# notes: Human IgG1; copies: 2 + 2
# B5: M4-3(A7)/ML2(G3) IgG (antibody, V domains shown)
# VH: B3 VH
# VL: B3 VL with Y27Q, G31N, F71Y, H87Y, K93A
# notes: Human IgG1
# B6: M4-3/ML2(E10/G3) IgG (antibody, V domains shown)
# VH: B3 VH with D31S, F54Y, R57S
# VL: B3 VL with K93A
# notes: Human IgG1
# B7: M4-3/ML2(G3) IgG (antibody, V domains shown)
# VH: B3 VH with D31S, F54Y, R57S
# VL: B3 VL with Y27Q, G31N, F71Y, H87Y, K93A
# notes: Human IgG1
# B8: M4-3(B7)/ML2 IgG (antibody, V domains shown)
# VH: B3 VH with D31S, R57I
# VL: B3 VL with Y27Q, G31N, H87Y
# notes: Human IgG1
# B9: M4-(A7)/ML2(C5) IgG (antibody, V domains shown)
# VH: B3 VH
# VL: B3 VL with Y27R, G31E, S52G, H87Y, K93E
# notes: Human IgG1; also called M4-3(A7)/ML2(C5)
# B10: M4-3(D6)/ML2 IgG (antibody, V domains shown)
# VH: B3 VH with D31S, R57K
# VL: B3 VL with Y27Q, G31N, H87Y
# notes: Human IgG1
# B11: M4-3/ML2(C5/G3) IgG (antibody, V domains shown)
# VH: B3 VH with D31S, F54Y, R57S
# VL: B3 VL with Y27R, G31E, S52G, H87Y, K93A
# notes: Human IgG1
# B12: M4-3(B8)/ML2 IgG (antibody, V domains shown)
# VH: B3 VH with D31S
# VL: B3 VL with Y27Q, G31N, H87Y
# notes: Human IgG1
# B13: M4-3/ML2(E10) IgG (antibody, V domains shown)
# VH: B3 VH with D31S, F54Y, R57S
# VL: B3 VL
# notes: Human IgG1
# B14: M4-3/ML2(C5) IgG (antibody, V domains shown)
# VH: B3 VH with D31S, F54Y, R57S
# VL: B3 VL with Y27R, G31E, S52G, H87Y, K93E
# notes: Human IgG1
# B15: M4-3(A7)/ML2 IgG (antibody, V domains shown)
# VH: B3 VH
# VL: B3 VL with Y27Q, G31N, H87Y
# notes: Human IgG1
# Target: human MCSP expressed on tumor cells (Colo-38, WM266-4, A375, MV-3, HCT-116) (human, UniProt Q6UVK1 30-2322)
# Sequence (Q6UVK1 30-2322): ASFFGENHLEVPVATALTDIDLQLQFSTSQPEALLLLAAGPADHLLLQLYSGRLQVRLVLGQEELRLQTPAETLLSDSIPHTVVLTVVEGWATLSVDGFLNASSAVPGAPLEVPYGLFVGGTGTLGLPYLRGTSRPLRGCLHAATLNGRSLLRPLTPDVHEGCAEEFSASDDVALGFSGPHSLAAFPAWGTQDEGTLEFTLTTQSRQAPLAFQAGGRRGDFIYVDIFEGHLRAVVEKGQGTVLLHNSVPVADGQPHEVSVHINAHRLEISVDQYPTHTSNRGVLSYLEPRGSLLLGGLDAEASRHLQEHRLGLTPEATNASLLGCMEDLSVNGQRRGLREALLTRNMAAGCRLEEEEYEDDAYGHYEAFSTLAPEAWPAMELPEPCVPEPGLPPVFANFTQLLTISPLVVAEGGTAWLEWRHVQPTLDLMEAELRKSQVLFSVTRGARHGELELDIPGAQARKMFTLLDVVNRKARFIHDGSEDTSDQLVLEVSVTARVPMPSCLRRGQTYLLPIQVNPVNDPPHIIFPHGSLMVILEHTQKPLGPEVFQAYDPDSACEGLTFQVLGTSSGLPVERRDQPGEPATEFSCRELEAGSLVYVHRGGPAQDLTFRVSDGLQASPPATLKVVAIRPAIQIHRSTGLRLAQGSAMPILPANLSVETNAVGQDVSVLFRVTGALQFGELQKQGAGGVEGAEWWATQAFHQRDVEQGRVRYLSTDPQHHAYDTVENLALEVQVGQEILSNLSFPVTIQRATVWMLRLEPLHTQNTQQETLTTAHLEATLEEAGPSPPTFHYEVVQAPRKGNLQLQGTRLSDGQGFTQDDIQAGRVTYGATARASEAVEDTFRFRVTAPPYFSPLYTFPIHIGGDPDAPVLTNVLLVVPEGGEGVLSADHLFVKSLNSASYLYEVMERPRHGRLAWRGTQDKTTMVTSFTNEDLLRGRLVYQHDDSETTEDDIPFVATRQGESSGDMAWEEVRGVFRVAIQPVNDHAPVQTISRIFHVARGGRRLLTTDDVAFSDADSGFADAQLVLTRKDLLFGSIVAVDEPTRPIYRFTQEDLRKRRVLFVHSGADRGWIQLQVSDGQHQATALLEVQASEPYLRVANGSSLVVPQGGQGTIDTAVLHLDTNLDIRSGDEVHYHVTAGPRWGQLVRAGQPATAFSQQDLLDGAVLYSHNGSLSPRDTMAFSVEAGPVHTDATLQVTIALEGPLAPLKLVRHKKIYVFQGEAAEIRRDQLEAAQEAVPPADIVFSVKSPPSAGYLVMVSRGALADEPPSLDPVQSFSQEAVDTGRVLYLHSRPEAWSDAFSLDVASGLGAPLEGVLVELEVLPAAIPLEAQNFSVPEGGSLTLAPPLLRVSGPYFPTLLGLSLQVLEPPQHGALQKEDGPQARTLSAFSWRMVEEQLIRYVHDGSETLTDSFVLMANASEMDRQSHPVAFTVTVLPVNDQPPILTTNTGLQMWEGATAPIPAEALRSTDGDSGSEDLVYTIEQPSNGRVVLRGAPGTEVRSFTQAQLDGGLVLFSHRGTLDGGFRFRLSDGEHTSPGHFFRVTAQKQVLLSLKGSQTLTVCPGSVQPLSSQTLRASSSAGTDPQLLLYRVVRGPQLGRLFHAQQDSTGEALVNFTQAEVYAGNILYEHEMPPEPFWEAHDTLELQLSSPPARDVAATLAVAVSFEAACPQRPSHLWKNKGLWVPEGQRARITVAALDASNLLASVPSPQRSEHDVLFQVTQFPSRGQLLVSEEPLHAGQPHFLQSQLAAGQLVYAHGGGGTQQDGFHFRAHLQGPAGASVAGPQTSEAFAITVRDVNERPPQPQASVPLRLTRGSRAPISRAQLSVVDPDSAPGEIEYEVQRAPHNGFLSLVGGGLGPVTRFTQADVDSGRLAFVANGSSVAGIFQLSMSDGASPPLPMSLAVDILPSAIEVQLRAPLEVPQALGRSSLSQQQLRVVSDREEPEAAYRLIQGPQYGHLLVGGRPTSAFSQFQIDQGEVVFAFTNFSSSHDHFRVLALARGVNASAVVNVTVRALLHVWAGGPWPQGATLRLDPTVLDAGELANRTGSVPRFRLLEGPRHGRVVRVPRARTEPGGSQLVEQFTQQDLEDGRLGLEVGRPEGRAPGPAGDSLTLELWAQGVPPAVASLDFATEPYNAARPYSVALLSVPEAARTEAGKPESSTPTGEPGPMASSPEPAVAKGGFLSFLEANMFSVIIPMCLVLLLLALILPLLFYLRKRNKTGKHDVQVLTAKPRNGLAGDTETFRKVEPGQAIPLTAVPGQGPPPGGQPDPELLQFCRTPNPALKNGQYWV
# Experiment: cell-based or functional assay
Binder,"EC50 of T cell-mediated killing (LDH release), MV-3 cells, human PBMCs E:T 10:1, 21 h [pM]","EC50 of T cell-mediated killing (LDH release), WM266-4 cells, human PBMCs E:T 10:1, 21 h [pM]"
B1,40.9,28.4
B2,88.4,53.9

# Target: T1, cynomolgus MCSP D3
# Experiment: ratio of ProteOn IgG KD, parent M4-3/ML2 against variant
row,Binder,Fold increase over parent [fold]
1,B3,2.9
2,B4,2.5
3,B5,10
4,B6,2.2
5,B7,3.3
6,B8,2.9
7,B9,10
8,B10,2
9,B11,2
10,B12,2
11,B13,1
12,B14,2
13,B15,2

# Target: T2, hu-MCSP(D3 domain)-avi-his
# Experiment: as above
row,Binder,Fold increase over parent [fold]
1,B3,6.7
2,B4,2.2
3,B5,28.6
4,B6,5
5,B7,6.7
6,B8,4
7,B9,28.6
8,B10,5
9,B11,2.9
10,B12,2.2
11,B13,2
12,B14,5
13,B15,2.5

# Target: T1, cynomolgus MCSP D3
# Experiment: SPR ProteOn XPR36, 25 C; IgG captured via anti-human F(ab')2, MCSP D3 as analyte
row,Binder,Kd [pM]
1,B3,700
2,B4,800
3,B5,200
4,B6,900
5,B7,600
6,B8,700
7,B9,200
8,B10,1000
9,B11,1000
10,B12,1000
11,B13,2000
12,B14,1000
13,B15,1000

# Target: T2, hu-MCSP(D3 domain)-avi-his
# Experiment: as above
row,Binder,Kd [pM]
1,B3,300
2,B4,900
3,B5,70
4,B6,400
5,B7,300
6,B8,500
7,B9,700
8,B10,400
9,B11,700
10,B12,900
11,B13,1000
12,B14,400
13,B15,800
